Experimental findings from patent US20240109937A1 (Johns Hopkins, published 2024) are described below.

A word on the Kd: it is the constant that tells how readily two partners part at equilibrium. For orientation: IC50 means the point on the concentration scale where inhibition reaches its midpoint. Read a low IC50 as greater potency.

The target in test [1] is T1, Peptidylprolyl isomerase A (PPIA), also known as cyclophilin A (CypA) (UniProt P62937 1-165).
T1 construct: Protein used for the in vitro KD/IC50 values
T1 sequence (P62937 whole entry): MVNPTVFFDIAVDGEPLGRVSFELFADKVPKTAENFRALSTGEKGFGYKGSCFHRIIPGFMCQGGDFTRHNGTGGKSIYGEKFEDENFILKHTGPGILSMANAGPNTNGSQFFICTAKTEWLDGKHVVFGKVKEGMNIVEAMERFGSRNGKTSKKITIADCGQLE
Description: printed as 'disrupts the complex AIF/Cyclophilin with a KD'; method not stated.

For test [2], the target named is T1, Peptidylprolyl isomerase A (PPIA), also …. Description: KD 'determined', method not stated; target not given, taken as CypA.
Test [3] has the same target. In words: printed as 'Disrupts the complex AIF/Cyclophilin with a KD'; method not stated.
The target is the same in test [4]. In words: disruption of the AIF/Cyclophilin complex in living cells and in vitro; method not stated.
Test [5] shares this target. In words: binding to CypA; method not stated.
For test [6], the target named is Apoptosis-inducing factor (AIF) protein (UniProt O95831 122-613, limits assumed). Description: printed as 'Disrupts the complex AIF/Cyclophilin with a KD'; method not stated; target taken as AIF.
Chain of Apoptosis-inducing factor (AIF) protein (O95831 122-613 limits assumed): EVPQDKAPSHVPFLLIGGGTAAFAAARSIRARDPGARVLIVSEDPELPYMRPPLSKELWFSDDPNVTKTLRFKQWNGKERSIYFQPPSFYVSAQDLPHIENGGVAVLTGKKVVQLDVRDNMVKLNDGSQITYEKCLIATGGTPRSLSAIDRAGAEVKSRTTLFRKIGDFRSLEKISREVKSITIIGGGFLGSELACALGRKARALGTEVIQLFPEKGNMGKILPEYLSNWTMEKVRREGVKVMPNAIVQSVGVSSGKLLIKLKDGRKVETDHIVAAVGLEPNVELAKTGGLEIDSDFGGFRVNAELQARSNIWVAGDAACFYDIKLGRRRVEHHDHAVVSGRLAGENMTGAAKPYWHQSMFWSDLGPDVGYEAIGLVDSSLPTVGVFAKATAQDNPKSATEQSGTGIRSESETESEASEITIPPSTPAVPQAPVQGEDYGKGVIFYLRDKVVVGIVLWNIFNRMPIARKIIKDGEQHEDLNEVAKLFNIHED

Bridge positions count the residues as written; N and C are the ends. Square brackets hold non-standard residues; d marks the D form. Ends that are not written are not given here. Lys(N3) = [N-]=[N+]=NCCCC[C@H](N)C(=O)O; hArg = N=C(N)NCCCC[C@H](N)C(=O)O; Tle = CC(C)(C)[C@H](N)C(=O)O; Hpra = C#CCC[C@H](N)C(=O)O; Nle = CCCC[C@H](N)C(=O)O

B1: AIF (381-389) LLox (peptide)
peptide: Ac-CIKLKLLRKVC-NH2
modifications: disulfide 1-11
SMILES: CC[C@H](C)[C@@H]1NC(=O)[C@@H](NC(C)=O)CSSC[C@@H](C(N)=O)NC(=O)[C@H](C(C)C)NC(=O)[C@H](CCCCN)NC(=O)[C@H](CCCNC(=N)N)NC(=O)[C@H](CC(C)C)NC(=O)[C@H](CC(C)C)NC(=O)[C@H](CCCCN)NC(=O)[C@H](CC(C)C)NC(=O)[C@H](CCCCN)NC1=O
The molecule B1 registered a Kd in test [1] of about 1 µM.

B2: Cyclic peptide derived from Formula (I), X5-X6: I-L (peptide)
peptide: CIKLKILRKVC
modifications: disulfide 1-11
On to B2, for which binding in test [2] was put at a Kd of 89.9 µM.

B3: Cyclic peptide derived from Formula (I), X5-X6: V-L (peptide)
peptide: CIKLKVLRKVC
modifications: disulfide 1-11
For the molecule B3, the Kd in test [2] turned out to be 37.6 µM.

B4: Cyclic peptide derived from Formula (I), X5-X6: V-V (peptide)
peptide: CIKLKVVRKVC
modifications: disulfide 1-11
B4 gave a Kd in test [2] of 268 µM.

B5: Cyclic peptide derived from Formula (I), X5-X6: L-V (peptide)
peptide: CIKLKLVRKVC
modifications: disulfide 1-11
In test [2], B5 showed a dissociation constant Kd of 7.57 µM.

B6: Cyclic peptide derived from Formula (I), X5-X6: I-I (peptide)
peptide: CIKLKIIRKVC
modifications: disulfide 1-11
Molecule B6 had a Kd in test [2] of 58.9 µM.

B7: Cyclic peptide derived from Formula (I), X5-X6: L-I (peptide)
peptide: CIKLKLIRKVC
modifications: disulfide 1-11
B7: the Kd in test [2] was 233 µM.

B8: AIF (370-394)-stapled peptides (peptide)
peptide: Ac-QSCGVSSG[Lys(N3)]LLCKLKDGRKV[Hpra]TDHI-NH2
modifications: disulfide 3-12; triazole 9-21
notes: also called stapled AIF (370-394) analog
B8: in test [3], the Kd was about 0.8 µM.

B9: AIF (381-389) ox (peptide)
peptide: Ac-CIKLKDGRKVC-NH2
modifications: disulfide 1-11
SMILES: CC[C@H](C)[C@@H]1NC(=O)[C@@H](NC(C)=O)CSSC[C@@H](C(N)=O)NC(=O)[C@H](C(C)C)NC(=O)[C@H](CCCCN)NC(=O)[C@H](CCCNC(=N)N)NC(=O)CNC(=O)[C@H](CC(=O)O)NC(=O)[C@H](CCCCN)NC(=O)[C@H](CC(C)C)NC(=O)[C@H](CCCCN)NC1=O
As for B9, the Kd in test [1] was about 2 µM.

B10: Cyclic peptide derived from Formula (I), X5-X6: Nle-Nle (peptide)
peptide: CIKLK[Nle][Nle]RKVC
modifications: disulfide 1-11
notes: X stands for the non-natural residue
As to B10, in test [2], binding was put at a Kd of 22.9 µM.

B11: Cyclic peptide derived from Formula (I), X2: hR (peptide)
peptide: CI[hArg]LKDGRKVC
modifications: disulfide 1-11; also: Y1 can be H (free N-terminus), Y2 can be amino (C-terminal amide)
notes: Only the changed residues are printed; X stands for the non-natural residue
In turn, B11 registered a Kd in test [2] of 80.3 µM.

B12: Cyclic peptide derived from Formula (I), X5-X6: L- Nle (peptide)
peptide: CIKLKL[Nle]RKVC
modifications: disulfide 1-11
notes: as for B10
On to B12, for which, in test [2], the affinity, expressed as Kd, was 23.9 µM.

B13: Cyclic peptide derived from Formula (I), X5-X6: L-L (peptide)
peptide: CIKLKLLRKVC
modifications: disulfide 1-11
On to B13, for which the Kd in test [2] came to 1.2 µM.

B14: Cyclic peptide derived from Formula (I), X5-X6: Tle-Tle (peptide)
peptide: CIKLK[Tle][Tle]RKVC
modifications: disulfide 1-11
notes: as for B10
For the molecule B14, the Kd in test [2] was 13.6 µM.

B15: AIF (370-394) (peptide)
peptide: Ac-QSVGVSSGKLLIKLKDGRKVETDHI-NH2
notes: also called AIF mimetic peptide (amino acids 370-394)
With B15, in test [4], the IC50 came to 5 µM. In test [5], this molecule displayed an equilibrium dissociation constant (Kd) of about 5 µM.

B16: Cyclic peptide derived from Formula (I), X5-X6: Nle -L (peptide)
peptide: CIKLK[Nle]LRKVC
modifications: disulfide 1-11
notes: as for B10
In turn, B16 showed a Kd in test [2] of 30.7 µM.

B17: Cyclic peptide derived from Formula (I), X5-X6: L- Tle (peptide)
peptide: CIKLKL[Tle]RKVC
modifications: disulfide 1-11
notes: as for B10
For the molecule B17, the Kd in test [2] is 151 µM.

B18: Cyclic peptide derived from Formula (I), X5-X6: Tle-L (peptide)
peptide: CIKLK[Tle]LRKVC
modifications: disulfide 1-11
notes: as for B10
Molecule B18 registered a Kd in test [2] of 147 µM.

B19: CypA (55-69) (peptide)
peptide: Ac-RIIPGFMCQGGDFTR-NH2
As to B19, the Kd in test [6] was about 6 µM.
